Substitutions are numbered along the chain they refer to. In names and notes the source's numbering stands. Several values for one entry are separate records, joined by “and”; a condition that tells them apart may be missing. Equal entries are not always repeated.
B1: Wildtype scFv (KKO-derived single chain variable fragment) (scFv)
scFv: DIQMIQSQKFMSTSVGDRVTVTCKASQNVGTNVAWYQQKPGQSPNALIYSASYRYSGVPDRFTGSGSGTDFTLTITNVQSEDLADYFCQQYNSYPLTFGTGTKLDLKGGGGSGGGGSGGGGSVQLQQSGAELVKPGASVKLSCKASGYTFTNYFIYWVKQRPGQGLEWIGEINPRNGDTDFNEKFESRATLTVDKSSSTAYMQLSSLTSEDSAIYYCTRSPYGNNYGFTYWGQGTLVTVSA
notes: VL-(G4S)3 linker-VH; expressed in E. coli BL21 from pADL-22c, purified on Ni-NTA as histidine-tagged scFv, about 28 kDa; also called WT; KKO-scFv; not shown: histidine tag from the pADL-22c vector
B2: Mutant E scFv, scFv(Y156H, D180G, Q233P) (scFv)
scFv: B1 scFv with Y156H, R175K, D180G, Q233P
notes: VL-linker-VH; histidine-tagged, from E. coli BL21; also called Mut E; not shown: histidine tag from the pADL-22c vector
B3: Mutant B scFv, scFv(R18K, N152K, D180N) (scFv)
scFv: B1 scFv with R18K, N152K, D180N
notes: VL-linker-VH; histidine-tagged, from E. coli BL21; also called Mut B; not shown: histidine tag from the pADL-22c vector
B4: Mutant D scFv, scFv(Y156H) (scFv)
scFv: B1 scFv with Y156H
notes: VL-linker-VH; histidine-tagged, from E. coli BL21; also called Mut D; not shown: histidine tag from the pADL-22c vector
B5: Mutant F scFv, scFv(E183V, E186K, G223R) (scFv)
scFv: B1 scFv with E183V, E186K, G223R
notes: VL-linker-VH; histidine-tagged, from E. coli BL21; also called Mut F; not shown: histidine tag from the pADL-22c vector

Molecular target: T1, PF4/heparin complex (human PF4 complexed with heparin) (human, UniProt P02776 32-101)
T1 construct: Multimeric complex of PF4 with heparin (not a protein); In the EIAs: PF4 captured on biotinylated heparin on streptavidin plates; In the SRA: platelets with 0.2 U/mL heparin; also called PF4 and heparin complexes
T1 sequence: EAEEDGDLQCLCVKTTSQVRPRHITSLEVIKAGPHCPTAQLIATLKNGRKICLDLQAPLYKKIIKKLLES
Assay: BLI (Octet), biotinylated PF4/heparin on streptavidin sensors, scFv 1 µg/mL, 1:1 model
Method: (§1) The Octet-QK Red 96 (FortéBio, Menlo Park, CA) instrumentation was used to conduct all BLI experiments. A 96-well microtiter plate (black, flat-bottom) was used to hold 200 μL per well of either sample or buffer. Pre-coated streptavidin biosensor tips (FortéBio) were hydrated in phosphate buffered saline (PBS) containing 1% bovine serum albumin (BSA, Sigma-Aldrich) before performing all kinetic assays. Each step was performed at an operating temperature of 23° C. with agitation at 1000 rpm. Streptavidin tips were first equilibrated in PBS+1% BSA to establish a baseline. […] The PF4-coated tips were then dipped into PBS+1% BSA for 13 minutes to re-establish a baseline. Tips were then incubated in an analyte solution containing half-fold dilutions of wildtype scFv (4.0, 2.0, 1.0, 0.5, 0.25 μg/mL in PBS+1% BSA) for 10 minutes to measure association. For mutant scFv association, tips were incubated in an analyte solution containing 200 μL of each mutant and wildtype scFv at a final concentration of 1 μg/mL in PBS+1% BSA. Antibody dissociation steps were performed by dipping sensors in wells containing PBS+1% BSA for 56 minutes. The following negative controls included in these kinetic experiments were also measured: 200 μL of buffer to replace both the antigen and scFv and 200 μL buffer replacing scFv only. Each experiment was performed with PF4 or with PF4/heparin as the immobilized antigen.
(§2) BLI experiments were performed to evaluate binding responses and affinities of wildtype and mutant scFv. Biotinylated PF4 alone or complexed with heparin was immobilized on streptavidin biosensors and used to capture wildtype scFv. Half-fold serial dilutions of wildtype scFv ranging from 0.25 μg/mL to 4 μg/mL were used to determine the optimal concentrations for future experiments PF4 (PF4 FIG. 3; PF4/heparin FIG. 4).

Row | Binder | Kd | fold stronger affinity than wildtype scFv | fold change of KD against wildtype scFv
1 | B1 | 5.38 nM | – | –
2 | B2 | 0.275 nM | 100 fold | –
3 | B3 | 1.36 nM | – | 100 fold
4 | B4 | 3.77 nM | 100 fold | –
5 | B5 | 0.292 nM | – | –

Molecular target: T1, PF4/heparin complex (human PF4 …)
Assay: competition EIA on PF4/biotinylated heparin, scFv 0-160 µg/mL; competitor full-length KKO 2 µg/mL
Method: (§3) Inhibitory PF4/heparin IgG-specific Streptavidin Enzyme Immunoassay (EIA). The binding activity of wildtype and mutant scFv antibodies to PF4/heparin complexes was measured using an inhibitory PF4/heparin IgG-specific EIA with a streptavidin-biotin capture system. Before performing this protocol, 96-well NUNC Maxisorp plates (ThermoFisher) were coated with 10 μg/mL streptavidin for 24 h. Plates were then blocked with 3% bovine serum albumin (BSA) in phosphate buffered saline (PBS) for 2 h at room temperature. Plates were then coated with 1 U/mL biotinylated-heparin for 1 h followed by 30 μg/mL PF4 for 1 h. Increasing concentrations of wildtype or mutant scFv were added and incubated for 1 hr at room temperature. Without removing wildtype or scFv, HIT patient sera in a 1:50 dilution or full-length KKO (2 μg/mL) was then incubated for 1 h at room temperature. After washing, alkaline phosphatase-conjugated anti-human or anti-mouse IgG (Jackson Immuno Research Laboratories, Inc., West Grove, PA) was added at a 1:4000 dilution and incubated for 1 h temperature. For detection, 1 mg/mL p-nitrophenylphosphate (PNPP, Sigma-Aldrich) substrate dissolved in 1 mol/L diethanolamine (DEA) buffer (pH 9.6) was added. The optical density (OD) was measured at 2 min intervals for 30 min at 405 nm (OD₄₀₅ₙₘ) using a BioTek 800 TS plate reader (BioTek Instruments Inc., Winooski, VT) to determine if anti-PF4/heparin antibody binding was inhibited. Results were reported as a decrease in OD (absorbance at 405 nm) from baseline levels.
To further evaluate the binding of mutant and wildtype scFv, their ability to inhibit full-length KKO from binding PF4/heparin complexes was assessed in a modified streptavidin-capture EIA. Biotinylated heparin was immobilized with PF4 on streptavidin-coated plates and incubated with KKO in the presence of scFv at half-fold serial dilutions from 0 to 160 μg/mL. […] Wildtype scFv and mutant C were unable to inhibit full-length KKO binding at these concentrations and IC50 values for these constructs were not calculated.

Row | Binder | IC50
6 | B2 | 293 nM and 8.2 µg/mL
7 | B3 | 57.3 nM and 1.6 µg/mL
8 | B4 | 111 nM and 3.1 µg/mL
9 | B5 | 1.3 µg/mL

Molecular target: T2, Human PF4 (CXCL4), biotinylated, without heparin (human, UniProt P02776 32-101, biotinylated with EZ-link-Sulfo-NHS-LC-Biotin (sites not given))
T2 construct: Immobilised on streptavidin biosensors for BLI; also called PF4 alone; platelet factor 4
T2 sequence: T1 sequence
Assay: BLI (Octet), biotinylated PF4 without heparin on streptavidin sensors, scFv 1 µg/mL
Method: as §1, §2

Row | Binder | average binding response (wavelength shift) | fold higher binding response than wildtype scFv | fold increase of binding response against wildtype scFv
10 | B1 | 0.0386 nm | – | –
11 | B2 | 0.0986 nm | 2 fold | –
12 | B3 | 0.267 nm | – | 7 fold
13 | B4 | 0.145 nm | ≥ 3 fold | –
14 | B5 | 0.211 nm | – | 5 fold

Molecular target: T1, PF4/heparin complex (human PF4 …)
Assay: competition EIA, scFv 50 µg/mL; competitor HIT-negative sera antibodies, n=10

Row | Binder | mean % inhibition of serum antibody binding
15 | B1 | -38.3%
16 | B2 | -34%
17 | B3 | -31.4%
18 | B4 | -17.3%
19 | B5 | -57%

Molecular target: T1, PF4/heparin complex (human PF4 …)
Assay: competition EIA, scFv 50 µg/mL; competitor HIT-positive sera antibodies, n=10
Method: as §3
Inhibiting HIT-Positive (EIA+/SRA+) HIT-Negative (EIA+/SRA−) antibody binding: Sera (n=10) from confirmed HIT-positive patients (EIA-positive/SRA-positive) containing anti-PF4/heparin antibodies were used in a modified streptavidin-biotin based anti-PF4/heparin IgG EIA (streptavidin anti-PF4/hep EIA) with scFv at 50 μg/mL. On average, antibody binding to PF4/heparin was reduced in the presence of scFv.

Row | Binder | mean OD405nm of bound serum IgG (+ scFv)
20 | B1 | 0.931 OD405nm
21 | B2 | 0.319 OD405nm
22 | B3 | 0.275 OD405nm
23 | B4 | 0.283 OD405nm
24 | B5 | 0.281 OD405nm

Molecular target: T2, Human PF4 (CXCL4), biotinylated, …
Assay: BLI (Octet), biotinylated PF4 without heparin on streptavidin sensors, scFv 1 µg/mL, 1:1 model
Method: as §1, §2

Row | Binder | Kd | fold stronger affinity than wildtype scFv | fold change of KD against wildtype scFv
25 | B1 | 1320 nM | – | –
26 | B2 | 0.954 nM | 10000 fold | –
27 | B3 | 1.69 nM | – | 1000 fold
28 | B4 | 5.83 nM | 1000 fold | –
29 | B5 | 0.607 nM | – | –

Molecular target: T1, PF4/heparin complex (human PF4 …)
Assay: cell-based or functional assay

Row | Binder | % inhibition of 14C-serotonin release (SRA), HIT-Positive Patient #1 serum, scFv 50 µg/mL | % inhibition of 14C-serotonin release (SRA), HIT-Positive Patient #1 serum, scFv 75 µg/mL | % inhibition of 14C-serotonin release (SRA), HIT-Positive Patient #2 serum, scFv 50 µg/mL | % inhibition of 14C-serotonin release (SRA), HIT-Positive Patient #2 serum, scFv 75 µg/mL | % inhibition of 14C-serotonin release (SRA), HIT-Positive Patient #3 serum, scFv 50 µg/mL | % inhibition of 14C-serotonin release (SRA), HIT-Positive Patient #3 serum, scFv 75 µg/mL | % inhibition of 14C-serotonin release (SRA), HIT-Positive Patient #4 serum, scFv 50 µg/mL | % inhibition of 14C-serotonin release (SRA), HIT-Positive Patient #4 serum, scFv 75 µg/mL | % inhibition of 14C-serotonin release (SRA), HIT-Positive Patient #5 serum, scFv 50 µg/mL | % inhibition of 14C-serotonin release (SRA), HIT-Positive Patient #5 serum, scFv 75 µg/mL
30 | B1 | 15.6% | 17.8% | 37.2% | 15.4% | 4.8% | 12% | 6.7% | 4.4% | -6.9% | 20.8%
31 | B2 | 14.4% | 25.6% | 9% | 10.3% | 14.5% | 9.6% | 6.7% | 4.4% | 47.2% | 59.7%
32 | B3 | 71.1% | 97.8% | 71.8% | 19.2% | 6% | 14.5% | 7.8% | 58.9% | 90.3% | 80.6%
33 | B4 | 42.2% | 94.4% | 12.8% | 16.7% | 10.8% | 36.1% | 20% | 38.9% | 69.4% | 87.5%
34 | B5 | 97.8% | – | 21.8% | – | 50.6% | – | 50% | – | 90.3% | –

Molecular target: T1, PF4/heparin complex (human PF4 …)
Assay: BLI (Octet), biotinylated PF4/heparin on streptavidin sensors, scFv 1 µg/mL
Method: as §1, §2

Row | Binder | average binding response (wavelength shift) | fold increase of binding response against wildtype scFv | fold higher binding response than wildtype scFv
35 | B1 | 0.0758 nm | – | –
36 | B2 | 0.0907 nm | – | –
37 | B3 | 0.379 nm | 4 fold | –
38 | B4 | 0.133 nm | – | ≥ 3 fold
39 | B5 | 0.285 nm | 5 fold | –
